# Results from patent US20090291088A1 (Biogen, published 2009).
# B1: M14-C03 Fab (Fab, V domains shown)
# VH: EVQLLESGGGLVQPGGSLRLSCAASGFTFSKYMMSWVRQAPGKGLEWVSYISPSGGLTWYADSVKGRFTISRDNSKNTLYLQMNSLRAEDTAVYYCARDGARGYGMDVWGQGTTVTVSS
# VL: DIQMTQSPATLSLSPGERATLSCRASQSVSSYLAWYQQKPGQAPRLLIYDASNRATGIPARFSGSGSGTDFTLTISSLEPEDFAVYYCQQRSNWPPEVTFGPGTKVDIK
# notes: Human phage Fab, kappa
# B2: M13-C06.G4.P.agly (antibody, human IgG4 S228P, kappa, V domains shown)
# VH: EVQLLESGGGLVQPGGSLRLSCAASGFTFSIYRMQWVRQAPGKGLEWVSGISPSGGTTWYADSVKGRFTISRDNSKNTLYLQMNSLRAEDTAVYYCARWSGGSGYAFDIWGQGTMVTVSS
# VL: DIQMTQSPLSLSASVGDRVTITCQASRDIRNYLNWYQQKPGKAPKLLIYDASSLQTGVPSRFGGSGSGTDFSFTIGSLQPEDIATYYCQQFDSLPHTFGQGTKLEIKR
# notes: Full-length human aglycosylated IgG4.P (S228P/T299A, EU), kappa; Places that say only 'M13-C06 antibody' were assigned to this version; Labelled with Eu chelate or biotin in some assays; also called M13-C06_Ab; Eu-C06
# Assays:
# [1] = molecular target: T1, human IGF-1R expressed on cells (human, UniProt P08069 31-1367); experiment: flow cytometry, MCF-7 cells
# T1 construct: On MCF-7 tumor cells or on 3T3/CHO transfectants; precursor is processed into alpha and beta subunits; Signal peptide 1-30 left out as stated; also called wild type IGF-1R; IGF-1R 3T3
# Method: The ability of Fabs to bind to the wild type IGF-1R was determined by flowcytometry using MCF-7 tumor cell line.
# MCF-7 cells (Human Breast Adenocarcinoma from NCI) were split 24 hours prior to the setup of the assay to obtain 70% confluent monolayer. Routinely, MCF-7 cell line was maintained within 20 passages. Cells were lifted with cell dissociation buffer (Gibco catalog #13151-014), counted, washed and adjusted to 1×10⁶ cells/ml and one ml of cells were then added to each tube (12×75 mm tube Falcon catalog# 352054). Cells were pelleted and supernatant removed by centrifugation at 1200 rpm for 5 min and 100 μl of diluted antibodies were then added to the cell pellet. Purified Fabs were tested at a starting concentration of either 210 or 60 μg/ml with 1:3 dilutions in FACS buffer, down to 0.001 μg/ml. FACS buffer used throughout the assay was PBS (without Ca++/Mg++) containing 1% BSA (Sigma catalog# A-7906; Sigma-Aldrich Corp. (St. Louis, Mo., USA)) and 0.1% Sodium Azide (Sigma catalog #S2002). […] Samples were allowed to incubate on ice for 1 hour and 15 minutes then were washed with 2 ml FACS buffer and centrifuged at 1200 rpm for 5 minutes at 4° C. The supernatant was aspirated and 100 μl of the secondary detection antibody was added to each corresponding tube in FACS buffer. Samples were then incubated for 30 minutes on ice, in the dark. Cells were washed as described above, then, re-suspended in […] FACS buffer per tube/sample.
# Cells were stained for live cell determination with Propidium Iodide staining solution (PI for dead cell exclusion; BD Pharmingen catalog# 51-66211E or 556463; use at 1:500 final in FACS buffer). Samples were run on the FACSCalibur instrument (Becton Dickinson) with 10,000 live events collected per sample.
# [2] = molecular target: T2, hIGF-1R-Fc mutant SD102 (E459A, S460A) (human, UniProt P08069 31-933); experiment: SPR, Fab over captured mutant
# T2 construct: not shown: C-terminal human IgG1-Fc tag
# [3] = molecular target: T3, hIGF-1R-Fc mutant SD103 (D461A, V462T) (human, UniProt P08069 31-933); experiment: SPR, Fab over captured mutant
# T3 construct: not shown: C-terminal human IgG1-Fc tag
# [4] = molecular target: T4, hIGF-1R-Fc mutant SD113 (E570A, I571T) (human, UniProt P08069 31-933); experiment: SPR, Fab over captured mutant
# T4 construct: not shown: C-terminal human IgG1-Fc tag
# [5] = molecular target: T5, hIGF-1R-Fc mutant SD108 (H480E) (human, UniProt P08069 31-933); experiment: SPR, Fab over captured mutant
# T5 construct: not shown: C-terminal human IgG1-Fc tag
# [6] = molecular target: T6, hIGF-1R-Fc mutant SD015 (H464E) (human, UniProt P08069 31-933); experiment: SPR, Fab over captured mutant
# T6 construct: not shown: C-terminal human IgG1-Fc tag
# [7] = molecular target: T7, hIGF-1R-Fc mutant SD109 (Y482A, R483W) (human, UniProt P08069 31-933); experiment: SPR, Fab over captured mutant
# T7 construct: not shown: C-terminal human IgG1-Fc tag
# [8] = molecular target: T8, hIGF-1R-Fc mutant SD110 (E533H) (human, UniProt P08069 31-933); experiment: SPR, Fab over captured mutant
# T8 construct: not shown: C-terminal human IgG1-Fc tag
# [9] = molecular target: T9, hIGF-1R-Fc mutant SD104 (H464A) (human, UniProt P08069 31-933); experiment: SPR, Fab over captured mutant
# T9 construct: not shown: C-terminal human IgG1-Fc tag
# [10] = molecular target: T10, human IGF-1R(1-902)-His10 (human, UniProt P08069 31-932); experiment: SPR, Fab over captured IGF-1R-10His
# T10 construct: Cy5-labelled in tr-FRET; also called hIGF-1R-His10; IGF-1R-His
# Method: (§1) All surface plasmon resonance (SPR) experiments were performed on a Biacore 3000 set to 25° C. using HBS-EP (Biacore, Cat. No. BR-1001-88) as the running buffer. A biotin-labeled anti-HisTag antibody (biotin-PENTA-His, Qiagen Cat. No. 34440) was immobilized to saturation on a Biacore SA chip (Cat. No. BR-1000-32) surface by injection at 500 nM in HBS-EP buffer. […] Subsequent to IGF-1R injections, flow rates were increased to 20 μL/min. A second, 130 μL injection of anti-IGF-1R antibody or Fab was performed to investigate interactions with the receptor. Each antibody and Fab was serially diluted from 64 nM to 0.5 nM to obtain concentration dependent kinetic binding curves. Each injection series was regenerated using 3×10 μL injections of 10 mM Acetate, pH 4.0, at 20 μL/min. Each curve was double referenced using (1) data obtained from a streptavidin surface devoid of IGF-1R and (2) data from a primary injection of IGF-1R followed by a secondary injection of HBS-EP buffer. The concentration series for each antibody and Fab was fit to the 1:1 binding model provided within the BiaEvaluation software of the manufacturer.
# To obtain discrete affinities, Fab fragments of each antibody were generated using papain digestion as described above.
# [11] = molecular target: T11, IGF-1R (soluble, construct not stated) (human, UniProt P08069 31-932, limits assumed); experiment: ligand blocking, competitor IGF-2; IGF-2 as the blocked ligand
# T11 construct: whole entry named; also called Solube IGF-1R Protein; soluble recombinant human IGF-1R
# [12] = molecular target: T11, IGF-1R (soluble, construct not stated …); experiment: ligand blocking, competitor IGF-1; IGF-1 as the blocked ligand
# [13] = molecular target: T10, human IGF-1R(1-902)-His10; experiment: SPR, antibody over captured IGF-1R-10His
# Method: as §1
# (§2) The rates at which the antibodies accumulate on the IGF-1R coated surface when applied at various concentrations as well as the rates at which they dissociated during applications of pure buffer were investigated by fitting the data to a 1:1 binding model. Approximate kinetic rate constants and equilibrium dissociation constant were calculated (Table 14).
# [14] = molecular target: T1, human IGF-1R expressed on cells; experiment: cell-based or functional assay
# [15] = molecular target: T10, human IGF-1R(1-902)-His10; experiment: SPR, antibody over IGF-1R-10His captured by anti-His, 1:1 model, approximate
# Method: as §1, with “The concentration series for each antibody and Fab was fit to the 1:1 binding model provided within the BiaEvaluation software of the manufacturer.” left out
# as §2
# [16] = molecular target: T12, human IGF-1R(1-903)-Fc (human, UniProt P08069 31-933); experiment: ELISA on hIGF-1R-Fc, competitor biotinylated M13-C06
# T12 construct: Made by Biogen Idec; Multimerises through IGF-1R and Fc; also called hIGF-1R-Fc; IGF-1R-Fc; not shown: C-terminal human IgG1-Fc tag
# [17] = molecular target: T12, human IGF-1R(1-903)-Fc; experiment: competition ELISA: biotinylated hIGF-1R-Fc on streptavidin plate, 320 nM human IGF-2 His, detection with anti-His-HRP; blocked ligand human IGF-2 His
# [18] = molecular target: T13, rat IGF-1R expressed on immune cells (rat, UniProt P24062 31-1370); experiment: FACS on granulocytes, monocytes, lymphocytes
# T13 construct: whole, on cells
# T13 sequence (P24062 31-1370): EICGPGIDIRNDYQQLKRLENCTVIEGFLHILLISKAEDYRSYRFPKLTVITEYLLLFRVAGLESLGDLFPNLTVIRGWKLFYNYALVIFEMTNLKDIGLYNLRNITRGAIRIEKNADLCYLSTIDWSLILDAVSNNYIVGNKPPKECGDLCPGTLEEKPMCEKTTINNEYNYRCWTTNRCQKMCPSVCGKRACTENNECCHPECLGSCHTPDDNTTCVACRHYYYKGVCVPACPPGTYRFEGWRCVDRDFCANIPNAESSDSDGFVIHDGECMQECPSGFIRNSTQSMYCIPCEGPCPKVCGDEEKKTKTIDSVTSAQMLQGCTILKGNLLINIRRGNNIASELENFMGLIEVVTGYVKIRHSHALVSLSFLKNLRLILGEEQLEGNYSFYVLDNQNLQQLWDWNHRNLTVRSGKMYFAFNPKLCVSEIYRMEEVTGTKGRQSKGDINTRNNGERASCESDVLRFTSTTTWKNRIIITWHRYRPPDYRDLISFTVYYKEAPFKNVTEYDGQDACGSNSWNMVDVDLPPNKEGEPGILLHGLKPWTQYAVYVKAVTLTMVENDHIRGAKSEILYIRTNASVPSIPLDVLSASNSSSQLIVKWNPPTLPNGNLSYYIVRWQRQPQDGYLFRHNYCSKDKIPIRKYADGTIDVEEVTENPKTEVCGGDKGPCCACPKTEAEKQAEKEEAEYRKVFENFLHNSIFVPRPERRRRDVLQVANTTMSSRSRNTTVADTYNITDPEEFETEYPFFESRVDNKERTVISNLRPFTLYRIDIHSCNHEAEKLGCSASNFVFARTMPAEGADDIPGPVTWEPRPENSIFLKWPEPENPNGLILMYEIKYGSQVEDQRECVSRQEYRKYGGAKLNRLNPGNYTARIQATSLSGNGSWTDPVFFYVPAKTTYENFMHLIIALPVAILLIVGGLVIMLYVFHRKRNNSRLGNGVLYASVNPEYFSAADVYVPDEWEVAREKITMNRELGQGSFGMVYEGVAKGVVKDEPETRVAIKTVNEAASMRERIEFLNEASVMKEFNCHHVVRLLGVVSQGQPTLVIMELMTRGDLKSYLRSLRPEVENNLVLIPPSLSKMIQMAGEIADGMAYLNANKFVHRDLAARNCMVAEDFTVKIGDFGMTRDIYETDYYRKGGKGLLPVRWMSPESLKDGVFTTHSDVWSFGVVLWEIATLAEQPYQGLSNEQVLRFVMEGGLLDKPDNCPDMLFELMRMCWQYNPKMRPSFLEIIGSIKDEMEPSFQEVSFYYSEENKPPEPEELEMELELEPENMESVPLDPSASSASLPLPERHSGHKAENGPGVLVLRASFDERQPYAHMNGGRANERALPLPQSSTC
# [19] = molecular target: cynomolgus IGF-1R expressed on cells (cynomolgus macaque, UniProt G7P9I7 31-1343); experiment: binding to CHO transfectants
# [20] = molecular target: T14, Rhesus IGF-1R expressed on CHO cells (rhesus monkey, UniProt I2CWY3 31-1367); experiment: binding to CHO transfectants
# T14 construct: whole, on cells; also called Rhesus IGF-1R/CHO
# T14 sequence (I2CWY3 entry or part of it): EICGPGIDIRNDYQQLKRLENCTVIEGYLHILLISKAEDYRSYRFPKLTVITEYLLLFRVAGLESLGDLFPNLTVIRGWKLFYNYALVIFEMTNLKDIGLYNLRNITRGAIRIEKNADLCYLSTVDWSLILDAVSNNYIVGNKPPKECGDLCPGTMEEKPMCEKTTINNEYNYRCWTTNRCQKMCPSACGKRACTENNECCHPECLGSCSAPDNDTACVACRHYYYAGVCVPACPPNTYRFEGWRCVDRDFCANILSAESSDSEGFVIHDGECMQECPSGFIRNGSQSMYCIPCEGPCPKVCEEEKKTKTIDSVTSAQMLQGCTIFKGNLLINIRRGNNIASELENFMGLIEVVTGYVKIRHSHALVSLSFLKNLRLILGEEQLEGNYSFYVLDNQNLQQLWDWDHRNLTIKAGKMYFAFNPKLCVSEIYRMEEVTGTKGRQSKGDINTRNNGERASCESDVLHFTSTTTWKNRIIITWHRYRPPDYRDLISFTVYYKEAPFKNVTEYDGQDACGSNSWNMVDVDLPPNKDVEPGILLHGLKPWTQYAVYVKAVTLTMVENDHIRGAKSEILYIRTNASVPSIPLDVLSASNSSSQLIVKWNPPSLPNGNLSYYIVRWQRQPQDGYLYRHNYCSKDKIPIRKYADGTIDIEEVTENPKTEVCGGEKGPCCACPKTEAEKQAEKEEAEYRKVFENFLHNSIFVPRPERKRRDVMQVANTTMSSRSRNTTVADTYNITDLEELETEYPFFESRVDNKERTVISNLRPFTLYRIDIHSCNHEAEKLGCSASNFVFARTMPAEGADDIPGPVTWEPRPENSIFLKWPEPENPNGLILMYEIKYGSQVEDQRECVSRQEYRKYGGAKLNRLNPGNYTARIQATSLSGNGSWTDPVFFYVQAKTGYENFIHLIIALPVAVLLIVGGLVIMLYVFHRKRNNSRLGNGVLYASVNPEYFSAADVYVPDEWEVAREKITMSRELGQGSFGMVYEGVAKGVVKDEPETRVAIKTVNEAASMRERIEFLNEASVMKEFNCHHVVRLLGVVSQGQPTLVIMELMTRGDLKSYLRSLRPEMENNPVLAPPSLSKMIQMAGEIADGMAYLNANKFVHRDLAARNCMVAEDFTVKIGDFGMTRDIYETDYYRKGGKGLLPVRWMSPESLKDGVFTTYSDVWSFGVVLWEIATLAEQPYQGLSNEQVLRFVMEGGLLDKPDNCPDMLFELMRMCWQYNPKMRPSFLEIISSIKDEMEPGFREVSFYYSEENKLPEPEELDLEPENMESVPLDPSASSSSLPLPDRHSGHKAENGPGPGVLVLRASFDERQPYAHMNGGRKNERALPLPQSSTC
# [21] = molecular target: T15, human insulin receptor expressed in mammalian cells (UniProt P06213 28-1382, limits assumed); experiment: immunoprecipitation from IR CHO lysate, western blot with mouse anti-human IR
# T15 construct: whole, on cells; Cells were solubilised with Triton X-100 before immunoprecipitation; also called INSR; IR
# Method: Recombinant IGF-1R and insulin receptor (IR) were independently expressed in mammalian cells (3T3 or CHO). […] Antibody/antigen complexes were released from the beads by acid treatment, applied to Tris-Glycine SDS-PAGE gels and blotted to nitrocellulose membranes. Detection was performed using mouse anti-human IR (FIG. 24A) or mouse anti-human IGF-1R (FIG. 24B) and goat α-mouse IgG.
# [22] = molecular target: T16, human INSR(28-956)-His10 (human, UniProt P06213 28-956); experiment: SPR, INSR over immobilised antibody
# T16 construct: range 28-956; Bought (R&D Systems 1544-IR); also called rh-INSR; soluble insulin receptor
# [23] = molecular target: T1, human IGF-1R expressed on cells; experiment: binding to tumor cells
# [24] = molecular target: T11, IGF-1R (soluble, construct not stated …); experiment: binding to soluble IGF-1R protein
# [25] = molecular target: T12, human IGF-1R(1-903)-Fc; experiment: ELISA, plate coated with soluble IGF-1 receptor Fc fusion protein, detection with anti-human kappa-HRP
# Method: The plate was washed with phosphate-buffered saline (PBS, Irvine Scientific, Cat#9240), pH 7.4 plus 0.025% Tween 20 in the Skan Washer 300 (Skatron Instruments), blocked with buffer containing 1% nonfat milk, 0.05% Tween 20 in PBS, pH 7.4, and then incubated at room temperature for 1 hour. After incubation plate was washed with PBS plus 0.025% Tween 20 in the Skan Washer 300. […] Following a one hour incubation at room temperature, plate was washed with PBS plus 0.025% Tween 20 in the Skan Washer 300. […] Plate incubated for 1 hour at room temperature was washed with PBS plus 0.025% Tween 20 in the Skan Washer 300. […] The absorbance was measured at 450 nm, background 540 nm for TMB using the Molecular Devices plate reader. Data was analyzed using the SOFTMAX PRO software package version 4.3 LS (Molecular Devices Corp.).
# [26] = molecular target: T12, human IGF-1R(1-903)-Fc; experiment: competition ELISA: biotinylated hIGF-1R-Fc on streptavidin plate, 320 nM human IGF-1 His, detection with anti-His-HRP; blocked ligand human IGF-1 His
# Method: hIGF-1R-Fc was biotinylated using EZ-Link Sulfo-NHS-LC-Biotin according to the protocol provided by the manufacturer (Pierce Cat. No. 21335). Biotinylated human IGF-1R-Fc at 5 μg/ml was added to the wells of SigmaScreen streptavidin-coated 96-well plates (Sigma, Cat. No. M5432-5EA; Sigma-Aldrich Corp. (St. Louis, Mo., USA)) at 100 μL/well and incubated overnight at 2-8° C. The plates were then washed four times with 200 μL/well PBST. […] The dilutions were added to the plates in duplicate at 100 μL/well and the plates were incubated at RT for 1 hour. The plates were then washed four times with 200 μL/well PBST. An HRP-conjugated anti-Histag antibody (Penta-His HRP Conjugate, QIAGEN, Cat. No. 1014992) was diluted 1:1000 in PBST and added to plates at 100 μL/well, and the plates were incubated at RT for one hour. The plates were then washed four times with 200 μL/well PBST. SureBlue Reserve TMB Microwell Peroxidase Substrate (KPL, Cat. No. 53-00-01) was added to plates at 100 μL/well followed by 1% phosphoric acid at 100 μL/well once the desired reaction was observed. The absorbance of each well was determined at 450 nm, and the results were normalized and plotted against the log of antibody concentration.
binder,measurement,setting,value
B1,EC50,[1],25.4 nM
same,binding result,[2],no binding (tested: 30 nM)
same,binding result,[3],no binding (tested: 30 nM)
same,binding result,[4],no binding (tested: 30 nM)
same,binding result,[5],no binding (tested: 30 nM)
same,binding result,[6],no binding (tested: 30 nM)
same,binding result,[7],no binding (tested: 30 nM)
same,binding result,[8],no binding (tested: 30 nM)
same,binding result,[9],no binding (tested: 30 nM)
same,Kd,[10],4.9 nM
same,koff,[10],0.00094 s⁻¹
same,kon,[10],190000 M⁻¹ s⁻¹
B2,IC50,[11],0.525 nM
same,IC50,[12],0.979 nM
same,koff,[13],0.00025 s⁻¹
same,kon,[13],1.8e+06 M⁻¹ s⁻¹
same,inhibition of IGF-1 and IGF-2 mediated IGF-1R receptor phosphorylation (EC50),[14],< 1 nM
same,Kd,[15],0.13 nM
same,percent competition (relative to self-competition),[16],90 to 100%
same,IC50 (read off the curve),[17],~1 nM
same,binding result,[18],no binding
same,EC50,[19],0.47 nM
same,EC50,[20],0.27 nM
same,binding result,[21],no binding
same,binding result,[22],no binding (tested: 2 µM)
same,EC50,[23],0.22 nM
same,EC50,[24],0.0422 nM
same,EC50 (read off the curve),[25],~0.04 nM
same,IC50 (read off the curve),[26],~1 nM
